Measurements taken from patent US6956104B2, “Protein Rim2” (JCR Pharmaceuticals Co., Ltd., priority 1999, dated 2005).

Assays:
[1] = tested on: Rab3A; experiment: In vitro binding of Rab3A to immobilized GST-Rim; conditions: immobilized on glutathione beads; anti-Rab3A immunoblotting
Procedure: Lipid-modified Rab3A was purified from the membrane fraction of Sf9 cells expressing Rab3A. Rat Rim1 (amino acid residues 1-204) and mouse Rim2 (amino acid residues 1-345) were expressed as GST fusion proteins and purified. The GTP γS- or GDP βS-bound form of Rab3A was incubated for 90 min at 4° C. with GST-Rim1, or GST-Rim2 (30 pmol for each) immobilized on glutathione beads in reaction buffer. Rab3A was detected by immunoblotting with anti-Rab3A antibody.

[2] = biological target: T1, cAMP-GEFII (Mus musculus, UniProt Q9EQZ6); experiment: GST pull-down, interaction of Rim with cAMP-GEFII; format: binding; conditions: lysates of COS-1 or MIN6 cells, or mouse brain homogenate; immunoblotting
T1 construct: A full-length cAMP-GEFII cDNA was subcloned into plasmid pFLAG-CMV-2 (Sigma); expressed in transfected cells; host or cells: COS-1 cells
T1 sequence (Q9EQZ6 1-1011): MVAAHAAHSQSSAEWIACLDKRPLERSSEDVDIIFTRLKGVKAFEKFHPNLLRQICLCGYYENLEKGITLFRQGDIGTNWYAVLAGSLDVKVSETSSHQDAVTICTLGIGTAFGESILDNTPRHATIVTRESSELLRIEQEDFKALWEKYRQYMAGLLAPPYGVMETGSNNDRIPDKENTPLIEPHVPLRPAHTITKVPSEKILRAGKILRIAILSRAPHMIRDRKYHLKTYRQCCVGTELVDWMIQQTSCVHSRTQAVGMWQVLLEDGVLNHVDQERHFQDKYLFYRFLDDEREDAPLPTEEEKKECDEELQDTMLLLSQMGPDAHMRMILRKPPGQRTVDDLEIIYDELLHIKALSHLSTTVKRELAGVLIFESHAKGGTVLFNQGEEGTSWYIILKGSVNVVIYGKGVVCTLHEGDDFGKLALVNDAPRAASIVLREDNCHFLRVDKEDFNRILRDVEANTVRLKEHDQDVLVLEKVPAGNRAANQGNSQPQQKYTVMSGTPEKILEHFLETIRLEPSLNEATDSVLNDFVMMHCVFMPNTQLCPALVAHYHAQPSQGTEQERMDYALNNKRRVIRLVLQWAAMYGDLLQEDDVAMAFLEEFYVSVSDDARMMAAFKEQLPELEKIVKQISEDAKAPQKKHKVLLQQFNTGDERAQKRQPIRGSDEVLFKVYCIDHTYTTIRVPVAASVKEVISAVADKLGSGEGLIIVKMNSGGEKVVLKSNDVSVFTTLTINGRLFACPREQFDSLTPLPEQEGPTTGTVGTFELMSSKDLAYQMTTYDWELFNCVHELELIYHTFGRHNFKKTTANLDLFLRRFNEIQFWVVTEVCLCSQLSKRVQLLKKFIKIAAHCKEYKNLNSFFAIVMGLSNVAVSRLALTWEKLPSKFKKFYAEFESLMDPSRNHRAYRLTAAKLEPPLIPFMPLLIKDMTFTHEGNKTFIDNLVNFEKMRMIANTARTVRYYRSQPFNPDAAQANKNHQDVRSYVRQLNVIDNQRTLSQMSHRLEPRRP
Procedure: Rim2 (amino acid residues 538-863) was expressed as a GST fusion protein and purified according to the method described in “Preparation and Test of GST fusion Protein”. A full-length cAMP-GEFII cDNA was subcloned into plasmid pFLAG-CMV-2 (Sigma). The resultant construct was transfected into COS-1 cells, using LipofectAMINE (Life Technologies). The lysate of the COS-1 cells was incubated with GST-Rim2 immobilized on glutathione beads for 2 hrs at 4° C. The complex thus obtained was washed with distilled water, separated by SDS-PAGE, and immunoblotted with an anti-FLAG M2 antibody (Sigma).
The lysate of MIN6 cells was incubated with GST-Rim2 and interaction between cAMP-GEFII and Rim2 was evaluated according to the method described in “Study on Interaction between Rim2 and cAMP-GEFII: I”, using a IgG antibody raised against the C-terminus (amino acid residues 1001-1011, […] (SEQ ID NO:5) of mouse cAMP-GEFII.
According to the method described in “Preparation and Test of GST fusion Protein”, Rim1 partial sequence (530-806) was expressed as a GST fusion protein and then purified. The brain homogenate from three mice was incubated with GST-Rim1 immobilized on glutathione beads overnight at 4° C. cAMP-GEFII was detected as described in “Study on Interaction between Rim2 and cAMP-GEFII: II”.

[3] = biological target: T2, constitutively active Rab3A (Q81L) (Bos taurus, UniProt P11023, Q81L); experiment: Yeast two-hybrid assay with Rab3A; format: binding, bovine; conditions: transactivation of liquid β-galactosidase activity
T2 construct: the full-length cDNA's for wild type mouse Rab3A and constitutively active bovine Rab3A (Q81L) were cloned into the yeast bait vector pBTM116; expressed in transfected cells
T2 sequence (P11023 1-220 Q81L): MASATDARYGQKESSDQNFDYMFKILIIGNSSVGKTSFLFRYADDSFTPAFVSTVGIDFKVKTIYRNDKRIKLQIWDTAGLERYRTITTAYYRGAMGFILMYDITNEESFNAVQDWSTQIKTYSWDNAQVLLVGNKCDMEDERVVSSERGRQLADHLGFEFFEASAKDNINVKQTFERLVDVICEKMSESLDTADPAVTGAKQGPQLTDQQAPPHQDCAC
From the text: According to the method described in “Identification of Interacting molecules by YTH Method”, the full-length cDNA's for wild type mouse Rab3A and constitutively active bovine Rab3A (Q81L) were cloned into the yeast bait vector pBTM116.
The nucleotide sequence of zinc finger domains of bovine rabphilin3 (amino acid residues 1-283), rat Rim1 (amino acid residues 1-204) and mouse Rim2 (amino acid residues 1-345 were cloned into the prey vector pVP16. Liquid culture assay of […] activities was performed according to the manufacturer's instructions (Clontech). The activity values were obtained from 3 independent clones for each transformant and normalized by cell numbers determined as OD600.

B1: Rim1: Rab3-interacting molecule, putative effector of the small G protein Rab3; rat, used as GST fusion (protein)
chain: MSSAVGPRGPRPPTVPPPMQELPDLSHLTEEERNIIMAVMDRQKEEEEKEEAMLKCVVRDMAKPAACKTPRNAESQPHQPPLNIFRCVCVPRKPSSEEGGPERDWRLHQQFESYKEQVRKIGEEARRYQGEHKDDAPTCGICHKTKFADGCGHLCSYCRTKFCARCGGRVSLRSNNEDKVVMWVCNLCRKQQEILTKSGAWFFG
modifications: left off: large carriers
notes: rat, used as GST fusion
binding to GTPγS- or GDP-bound form of Rab3A [1]: binds to the GTP-activated form | interaction with cAMP-GEFII protein [2]: bound | interaction with active Rab3A (Q81L) [3]: interacts
